What was measured:
EhMGL1 [1] = biological target: T1, EhMGL1 (Entamoeba histolytica, UniProt Q86D28); test: X-ray crystallography, […] Å; format: binding; details: covalent, Schiff base with Lys205; substrate-free enzyme
T1 construct: gene metg; homotetramer
T1 sequence (Q86D28 1-389): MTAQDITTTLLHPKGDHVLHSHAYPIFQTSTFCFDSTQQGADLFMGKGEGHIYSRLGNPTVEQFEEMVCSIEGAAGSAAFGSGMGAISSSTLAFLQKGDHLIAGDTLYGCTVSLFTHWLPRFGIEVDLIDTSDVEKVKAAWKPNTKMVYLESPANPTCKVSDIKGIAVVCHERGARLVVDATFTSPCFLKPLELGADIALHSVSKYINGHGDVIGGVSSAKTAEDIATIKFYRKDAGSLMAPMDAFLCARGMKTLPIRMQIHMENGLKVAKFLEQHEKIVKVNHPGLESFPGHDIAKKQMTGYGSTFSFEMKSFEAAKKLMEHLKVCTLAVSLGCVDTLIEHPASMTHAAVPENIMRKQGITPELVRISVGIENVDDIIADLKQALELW

EhMGL1 [2] = biological target: T1, EhMGL1; test: X-ray crystallography of methionine-soaked crystals; format: binding; details: covalent Schiff base with PLP in intermediates; Michaelis complex also seen; 50 mM L-methionine soak 30–120 s, 293 K
[3] = biological target: L-methionine γ-lyase from Entamoeba histolytica (EhMGL1) (Entamoeba histolytica); test: crystal structure; hanging-drop vapor diffusion at 277 K, 1.8 M ammonium sulfate, 0.1 M cacodylate pH 6.6, 0.1 M lithium citrate, 100 μM PLP; substrate-free and methionine-soaked crystals (50 mM L-methionine, 30-120 s, 293 K); tetramer of two catalytic dimers in the crystal
purified protein [4] = substrate: C[Se]CC[C@H](N)C(=O)O; test: purified protein; details: 100 mM phosphate pH 7.0, 1 mM DTT, 20 μM PLP, 37 °C
purified protein [5] = substrate: COCC[C@H](N)C(=O)O; test: purified protein; details: 100 mM phosphate pH 7.0, 1 mM DTT, 20 μM PLP, 37 °C

Cc1ncc(COP(=O)(O)O)c(C=O)c1O [pyridoxal 5′-phosphate]
X-ray crystallography, 1.97 Å (EhMGL1 [1]): the active site binds a PLP cofactor that forms a Schiff base

CSCC[C@H](N)C(=O)O [CH3S, L-methionine]
X-ray crystallography of methionine-soaked crystals (EhMGL1 [2]): Crystals of EhMGL1 complexed with reaction intermediates were prepared by soaking crystals

L-methionine γ-lyase from Entamoeba histolytica (EhMGL1) (enzyme)
stoichiometry N [3]: 4

B1: EhMGL1 (Entamoeba histolytica) (protein)
chain: MTAQDITTTLLHPKGDHVLHSHAYPIFQTSTFCFDSTQQGADLFMGKGEGHIYSRLGNPTVEQFEEMVCSIEGAAGSAAFGSGMGAISSSTLAFLQKGDHLIAGDTLYGCTVSLFTHWLPRFGIEVDLIDTSDVEKVKAAWKPNTKMVYLESPANPTCKVSDIKGIAVVCHERGARLVVDATFTSPCFLKPLELGADIALHSVSKYINGHGDVIGGVSSAKTAEDIATIKFYRKDAGSLMAPMDAFLCARGMKTLPIRMQIHMENGLKVAKFLEQHEKIVKVNHPGLESFPGHDIAKKQMTGYGSTFSFEMKSFEAAKKLMEHLKVCTLAVSLGCVDTLIEHPASMTHAAVPENIMRKQGITPELVRISVGIENVDDIIADLKQALELW
Km (purified protein [4]): 410 ± 70 µM
Km (purified protein [5]): 2500 ± 240 µM
kcat (purified protein [5]): 1.04 ± 0.35 s⁻¹
kcat/Km (purified protein [5]): 420 ± 150 M⁻¹ s⁻¹
